Test results reported in patent publication US20210046160A1 (Synthorx, Inc., priority 2019, published 2021).

Columns and labels:
[1] = Plasma and tumor PK study E3826-U1803 in B16-F10 tumor-bearing C57BL/6 mice; format: in vivo
Description: Terminal blood samples were collected via cardiac puncture at the points indicated. […] Plasma and blood cells (in both studies) and tumors in study E3826-U1803 were collected for PK and PD analyses.
Bioanalysis of plasma samples was performed using a qualified human IL-2 ELISA assay (Abcam, Cambridge, UK). Concentrations of Aldesleukin, E62_30kD and P65_30kD and the internal standard in samples derived from plasma were determined using an ELISA assay. […] The PK data were imported into Phoenix WinNonlin v6.4 (Certara/Pharsight, Princeton, N.J.) for analysis. The group mean plasma concentration versus time data were analyzed with noncompartmental methods using an IV bolus administration model.
The tail end of the curves cross showing the plasma eliminates faster than the tumor (data not shown).

[2] = PK/PD in cynomolgus monkeys, Study No. 20157276; details: cynomolgus monkey, 0.3 mg/kg single IV
Description: The study was conducted at Charles River Laboratories, Inc. (Reno, Nev.) and PK data analysis was performed at NW Solutions (Seattle, Wash.). […] Both plasma and blood cells were collected for PK and PD analyses. Selected time points were used for PK, PD, cell population and hematology analysis.

[3] = biological target: T1, IL-2 receptor βγ complex (IL-2Rβ and IL-2Rγ subunits) (Homo sapiens, UniProt P14784+P31785); test: PathHunter IL-2 Cytokine Receptor assay, agonist mode, βγ cell line; format: cell-based; details: ratio of the EC50 values
T1 construct: host or cells: recombinant human U2OS cell line (PathHunter)
T1 sequence (P14784 27-551): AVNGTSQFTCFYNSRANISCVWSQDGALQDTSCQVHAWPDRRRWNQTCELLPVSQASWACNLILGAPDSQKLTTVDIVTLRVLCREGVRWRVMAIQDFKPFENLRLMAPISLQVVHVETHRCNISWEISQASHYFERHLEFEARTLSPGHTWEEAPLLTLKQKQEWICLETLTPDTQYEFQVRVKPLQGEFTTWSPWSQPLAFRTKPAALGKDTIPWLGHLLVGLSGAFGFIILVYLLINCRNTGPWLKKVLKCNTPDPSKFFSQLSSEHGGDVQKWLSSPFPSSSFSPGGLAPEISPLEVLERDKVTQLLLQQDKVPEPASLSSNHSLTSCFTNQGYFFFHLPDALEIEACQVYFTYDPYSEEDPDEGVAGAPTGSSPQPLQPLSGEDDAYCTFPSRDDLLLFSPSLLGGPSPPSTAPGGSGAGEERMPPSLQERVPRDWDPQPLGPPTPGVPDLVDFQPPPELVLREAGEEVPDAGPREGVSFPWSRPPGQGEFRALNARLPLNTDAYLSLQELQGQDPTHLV
T1 sequence (P31785 23-369): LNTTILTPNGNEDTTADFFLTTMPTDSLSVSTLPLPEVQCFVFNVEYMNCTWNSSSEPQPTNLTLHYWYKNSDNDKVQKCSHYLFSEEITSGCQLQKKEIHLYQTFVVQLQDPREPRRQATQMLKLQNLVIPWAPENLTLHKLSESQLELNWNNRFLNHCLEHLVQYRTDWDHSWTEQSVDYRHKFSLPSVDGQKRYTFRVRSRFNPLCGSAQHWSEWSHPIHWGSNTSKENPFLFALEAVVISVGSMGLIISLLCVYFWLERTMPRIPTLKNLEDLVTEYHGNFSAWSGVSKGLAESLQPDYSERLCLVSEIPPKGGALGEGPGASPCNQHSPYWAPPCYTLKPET
Description: PathHunter cell lines were expanded from freezer stocks according to standard procedures. Cells were seeded in a total volume of 20 μL into white walled, 384-well microplates and incubated for the appropriate time prior to testing.
For agonist determination, cells were incubated with sample to induce response. Intermediate dilution of sample stocks was performed to generate 5× sample in assay buffer. About 5 μL of 5× sample was added to cells and incubated at 37° C. for 6 to 16 hours depending on the assay. Vehicle concentration was 1%.
Assay signal was generated through a single addition of 12.5 or 15 μL (50% v/v) of PathHunter Detection reagent cocktail for agonist and antagonist assays respectively, followed by a one hour incubation at room temperature. For some assays, activity was detected using a high sensitivity detection reagent (PathHunter Flash Kit) to improve assay performance. In these assays, an equal volume of detection reagent (25 or 30 μL) was added to the wells, followed by a one hour incubation at room temperature. Microplates were read following signal generation with a PerkinElmer Envision™ instrument for chemiluminescent signal detection.
Compound activity was analyzed using CBIS data analysis suite (ChemInnovation, CA). For agonist mode assays, percentage activity was calculated using the following Formula:
% Activity=100%×(mean RLU of test sample−mean RLU of vehicle control)/(mean MAX RLU control ligand−mean RLU of vehicle control).
A second cell line has been further engineered to express the IL-2Rα subunit. […] The assay was run in agonist mode to determine the EC50 of each test article, and comparison of dose-response curve profiles between IL2Rα positive and negative cell types allows determination of the contribution of IL2Rα to the observed activity.

[4] = B16-F10 tumor-bearing C57BL/6 female mice, 3 mg/kg single IV dose

P65_30kD: SEQ ID NO: 25: IL-2 (SEQ ID NO: 4) with P65 replaced by AzK click-conjugated to methoxy linear 30 kDa PEG [Compound P65_30kD]
tumor:plasma AUC ratio ([1]; 1 mg/kg dose): 9.7%
tumor:plasma AUC ratio ([1]; 3 mg/kg dose): 8.4%
AUC0-t, Plasma [1, 4]: 656,000 h*ng/mL
AUC0-t, Tumor [1, 4]: 55200 ng·h/mL
AUCINF, Plasma [1, 4]: 656,000 h*ng/mL
AUCINF, Tumor [1, 4]: 55200 ng·h/mL
Cmax, Plasma [1, 4]: 40000 ng/mL
Cmax, Tumor [1, 4]: 1550 ng/mL
Tmax, Plasma [1, 4]: *2.00 h
Tmax, Tumor [1, 4]: 480 min
t½, Plasma [1, 4]: 756 min
t½, Tumor [1, 4]: 1460 min
AUC0-t, Animal 2705 [2]: 120000 ng·h/mL
AUC0-t, Mean [2]: 121000 ng·h/mL
CL, Animal 2699 [2]: 2.47 mL/h/kg
CL, Animal 2705 [2]: 2.49 mL/h/kg
CL, Mean [2]: 2.48 mL/h/kg
Cmax, Animal 2699 [2]: 11000 ng/mL
Cmax, Animal 2705 [2]: 11400 ng/mL
Cmax, Mean [2]: 11200 ng/mL
Tmax, Animal 2699 [2]: 30 min
Tmax, Animal 2705 [2]: 30 min
Vss, Animal 2699 [2]: 0.029 L/kg
Vss, Animal 2705 [2]: 0.0321 L/kg
Vss, Mean [2]: 0.0305 L/kg
mean plasma concentrations measurable out to (post-dose) [2]: 168 h
Tmax, Mean ([2]; 0.3 mg/kg): 30 min
βγ/αβγ ratio [3]: 5
